The series can be described thus: soluble on expression in E. coli; label from the status in PepcDB or PDB records.
As for “MVRVVRHSRGTCNRGLYEVRELARNRTLQQWGVEDSAELYGIRNWGAGYFDVAQNGDVVVYPFGHNRGPAVSIPEIIGGMRERGYDMPVLLRIENILDSQITSLHTSFRNAIGSLGYKGEYRGIFPIKVNQQQQVVEKIAQFGSHYHHGLEVGSKAELIAAVSQLRDREACLVCNGYKDEEFIDLGLHAVRLGFMCIFVLEMPGELDLILERGEALGVKPIIGVRAKLSVKAGGHWTDSGGERSTFGLTTSQIVDVVDRLKEKGMLDCFKLLHYHLGSQVPNIRDIRAAVMEACRIYAGLVQEGAAMGFLDLGGGLAVDYDGSHTNFVSSRNYTLDEYCADIVEAVMTTLDEQNIPHPHIVTESGRATVAYYSMLLFNILDVSRVEIGNLPDALPEDTPEPVRNMREVLAGMTLRNLQECYNDALYYRDAVRQLFLTGQVTLRQRTLSERLFWAIMKRIAQEKQKLKHVPKDLAEIDVALADIYYGNFSVFQSLPDSWAIDQLFPVMPVHRLQELPSRQGILSDITCDSDGRIDHFIDPQGMKGTLDLHPLRDGEEYYLGVFLVGAYQETLGDLHNLLGDTNVVSVRVHEDGTYEFVREIRGDSVADILSYVEYDPRRIYEDIRELAERAVREGRITASDRFRVMQAYEDGLRGYTYFERLEHHHHHH”, the “soluble on expression in E. coli” value is on record as “not soluble”.
As for “MKKVEILKTSRPSSAGGAARPSTASPTHGAPKIAIKTRPVADDVAPTAATVIEPSQKAMKESVRFLTDFGEISDAISDLLTSSPNFNVISAIGPQGAGKSTLLSMLAGNNSRQMYREYVFRPVSREANEQSRHQTIQIDIYIVNHQIFLDCQPMYSFSIMEGLPKVRGGRFDDSTAMSDTLRLTAFLLYVSHTVLVVSETHYDKVIIDTLRVAEQIRPYLAIFRPKLAIDRKTNLVFIKTKASSIDLAPTVIREREELLRLSFQDSRWLKVSQEPFKTLIVLEEIRVRREHLFEEGDEPDEAASLNEFDEQIAELREELQKNREDFTVETAAMDEKKWLDMCREVIRDKTLHKTLKEYQRAMTDGVRTHFDNGFHAERDANKFFS”, the “soluble on expression in E. coli” value is “not soluble”.
Turning to “MGSDKIHHHHHHMMIDTPAVLIDRERLTANISRMAAHAGAHEIALRPHVKTHKIIEIAQMQVDAGARGITCATIGEAEIFAGAGFTDIFIAYPLYLTDHAVQRLNAIPGEISIGVDSVEMAQATAGLREDIKALIEVDSGHRRSGVTATASELSQIREALGSRYAGVFTFPGHSYGPGNGEQAAADELQALNNSVQRLAGGLTSGGSSPSAQFTDAIDEMRPGVYVFNDSQQITSGACTEKQVAMTVLSTVVSRNVSDRRIILDAGSKILSTDKPAWIDGNGFVLGNPEARISALSEHHATIFWPDKVLLPVIGEQLNIVPNHACNVINLVDEVYVREADGTFRTWKVVARGRNN”, the “soluble on expression in E. coli” value is “not soluble”.
On to “MTPNRRSTDSYNMLGASFDFDPDFSLLSNKTHKNKNPKPPVKLLPYRHGSNTTSSDSDSYIFNSGSGSSDAETPAPVAPIFISLEDVLLNGQLIDFAIDPSGVKFLEANYPLDSEDQIRKAVFEKFTESTTLFVGLCHSRNGNFIVQKLVELATPAEQRELLRQMIDGGLLAMCKDKFACRVVQLALQKFDHSNVFQLIQELSTFDLAAMCTDQISIHVIQRVVKQLPVDMWTFFVHFLSSGDSLMAVCQDKYGCRLVQQVIDRLAENPKLPCFKFRIQLLHSLMTCIVRNCYRLSSNEFANYVIQYVIKSSGIMEMYRDTIIDKCLLRNLLSMSQDKYASHVIEGAFLFAPPALLHEMMEEIFSGYVKDVESNRDALDILLFHQYGNYVVQQMISICTAALIGKEERELPPAILLLYSGWYEKMKQRVLQHASRLERFSSGKKIIDSVMRHGVPTAAAVNAQAAPSLMELTAQFDAMFPSFLAR”, for which the “soluble on expression in E. coli” value is listed as “not soluble”.
Regarding “MSKGASAPQQQSAFKQLYTELFNNEGDFSKVSSNLKKPLKCYVKESYPHFLVTDGYFFVAPYFTKEAVNEFHAKFPNVNIVDLTDKVIVINNWSLELRRVNSAEVFTSYANLEARLIVHSFKPNLQERLNPTRYPVNLFRDDEFKTTIQHFRHTALQAAINKTVKGDNLVDISKVADAAGKKGKVDAGIVKASASKGDEFSDFSFKEGNTATLKIADIFVQEKGKDALNKAADHTDGAKVKGGAKGKGKAAAKAAKGKKLSAKKGDSSAADVRKSVDKIVKYTPSKGSRKDTPQKSQAPAAGKSSAKKGGKKAVPSAPSPSGKKSALTTDKMTMAQFVKYLDWHEKKKGGKVSSGGKVLGKRSAGKASATSGKASKASKKTAAKK”, the “soluble on expression in E. coli” value is given as “soluble”.
For “MGSDKIHHHHHHNFDDLLQLLEIHSRVFDVTPPSTGTVGSMRYLEYNGHVLANVEDLYILDNNKLPSPGVPVETLKLFGVDYIQTGDGVKIITCRVNSIEEIGKTVVVNFEGEKNFDVEQTQNSVRIIAKDWLLFRGVVKMPEEVLYEKENVRIERTAESDGQFRILLSAESVGKYVVKPFGERVDPYEKDVVFLVGYGDGRIIVRSFSKDLNGLDLPAYSESLKLARKIANELGYKLEECPVYDIPVGVIGMIVLLKGKDEMPVFLNTVERLMAE” the value was “not soluble”; for “MAHHHHHHMKGLHIRPMNDSRLCERIKVLDDYCFPVKYTESYYNDYVRNSFHEFNQLAFYHDILVGSITCRLEKTATDGEHVLYIMTIGVLEAYRHLRIGSRLLQTVLSAVHNDTRNRIVAVTLHVQVGSPALKLYRQFNFEEVQLVENYYTDLDECNAILLRRVVPQPHFEHHKKFK”, “not soluble”; for “MSVLAVQAQRTSIGITAGTGTAWLSDTDRDVVFNPVWNAGATLVYSSETHWGFGADIKYSREGVKFTYAGTGNYNGQTMTTRVGSDFIRIPLRAIYFFNKNENAFRPNVSLGPSFGILTGGEIKTYDGDKNVIGTSKVSDSFRDVDFGLQGTAGASIMLSDGLWFSADIVYYQGLNKQNKNGTNTMLNSNVGINLGLRIGVGR”, “not soluble”.
With “MKFKQDFFTQLPEFYSQVYPQGISNPHWLAWSDDAAALIGLHQPTDELLQGLSGNAAVEGASYYAQVYSGHQFGGYTPRLGDGRSIILGEAIGPNGAWDVALKGGGPTPYSRHGDGRAVMRSAVREFLVSEALHHLGVPTTRALAVIGSDMPVWRESQETAAITVRLARSHIRFGHFEFFSHSERGQADKLTQLLNFTLKQHYPHLSCDPAGYKAWFLQVVQDSAKMIAHWQAIGFAHGVMNTDNMSILGDSFDFGPFAFLDTFQEDFICNHSDPDGRYAFGQQPGIGLWNLQRLAQALTPVIASDDLIAALNQYQHALVQHYLALMRAKLGLVQQADSSAEQDQQDLELIGRFTVLMEKNQLDYSHTWRRFGQLDPSSLHSSLRDDFIDLNEFDAWYQVYQARLGKVTDVEAWQQQCNRVNPKYILRNYLAQEAIIAVDEGNLAQLQRLHQVLRQPFTEQIEHEELAKRPPDWGQGLIMSCSS”, the “soluble on expression in E. coli” value is on record as “soluble”.
As for “MSVTVFIPGDSAALAVGANRVAEAIAREAASRNLDVQIVRNGSRGMLWLEVLVEVRTEHGRIAYGPVKAADVTSLFDADFLDGGDHRLCLGPTKDIPFLKNQTRLTFARCGVTDPLSLEDYRNYQGMKGLEKAVTMEPLAIVAQVTESGLRGRGGAGFPTGIKWKTVADARADQKYIVCNADEGDSGTFADRMIMEGDPFVLIEGMAIAGLAVGATKGFIYTRSEYPYAIKVMEKAIEIARREGILGSSVLGSGRAFDMEVRMGAGAYVCGEETSLLNSLEGKRGTVRAKPPLPALQGLFGKPTVVNNVISLASIPVIMDRGAAFYRDFGVGRSHGTIPIQLAGNIRYGGLYETAFGLTLGQLVNDIGGGTITGRPVKAVQVGGPLGAYFPVSLFDTIFDYEAFTAAGGLIGHAGIVVFDDTADMLHQARFALEFCAVESCGKCTPCRIGSTRGVETVDKIALGIEREKNTALLEDLCETMKFGSLCALGGFTPYPVMSALRHFPQDFAPIPRVEAAEAAALEHHHHHH”, the “soluble on expression in E. coli” value is “not soluble”.
Take “MALMYPFHVAQPPLNWSEHLWVSEVSPAKESFITTICEHRQAQWDNQDLLRHLQDSVAILTREDQRHVNAVHAAANMPANP”: the “soluble on expression in E. coli” value was “not soluble”.
To “MQETMLDLRTVYECNRCLGCKTLHPQVGIINLENPSLEEDAVKFEFYAVLLIEDCPGGCCCCGRKYYDYSNATMVFLTPGEIFRMSKENTLPDKGYLLAFHPDLLFRTSLKNHIKNYTFFHYRKEEALHLSRRETEKVTCCLSNIEDELHHPIDTHSSIILSRHIELLLDYCTRYYERQFITRENKNKALLENMERLFVEYIASGRLQGGKLPTSGYMAGELDLSVAYFDDLLKFETGKTLEEYLQLKRLDIARHMLLQDGHTPAAVARKLGYPNVQCFSVLFKKITGVAPSDYRLSQN” belongs “not soluble”; to “MITELRPNPYQPRKHFNKEAIQELSASIKEHGILQPLIARKSIKGYEIVAGERRYRAAKEAGLEKVPAVVRQLNEQQMMEFALLENLQREDLNPMEEAMAYQMLMNELNVTQEQLAKCLGKSRPYIANYTRLLSLPSFVQDMIANGQLSMAHGRTLLTIKDEEQLKSLLKRIEKEGLNVRQLEKIVQEINQSVSRETKQVKKERNIFFIERETFLREKFGTDVKIKETKKEKGKIEIEFFNKEDLNRILELLAQKN”, “not soluble”.
In the case of “AHHHHHHGSGKRVVIALGGNALQQRGQKGSYEEMMDNVRKTARQIAEIIARGYEVVITHGNGPQVGSLLLHMDAGQATYGIPAQPMDVAGAMSQGWIGYMIQQALKNELRKRGMEKKVVTIITQTIVDKNDPAFQNPTKPVGPFYDEETAKRLAREKGWIVKEDSGRGWRRVVPSPDPKGHVEAETIKKLVERGVIVIASGGGGVPVILEDGEIKGVEAVIDKDLAGEKLAEEVNADIFMILTDVNGAALYYGTEKEQWLREVKVEELRKYYEEGHFKAGSMGPKVLAAIRFIEWGGERAIIAHLEKAVEALEGKTGTQVLP”, the “soluble on expression in E. coli” value was “soluble”.
For “MKLNRAIGVIDSGVGGLTVAKELIRQLPKERIIYLGDTARCPYGPRSREEVRQFTWEMTEHLLDLNIKMLVIACNTATAVVLEEMQKQLPIPVVGVIHPGSRTALKVTNTYHVGIIGTIGTVKSGAYEEALKSINNRVMVESLACPPFVELVESGNFESEMAYEVVRETLQPLKNTDIDTLILGCTHYPILGPVIKQVMGDKVQLISSGDETAREVSTILYHSKMLNEGEEQSDHLFLTTGKIGLFKEIASKWFGQPIENVKHIHLEKE”, the “soluble on expression in E. coli” value is on record as “not soluble”.
Consider “MTKRNTPQRRHNILALLNEQGEVSVDDLARRFETSEVTIRKDLAALETNGLLLRRYGGAIPLPHELISESSQPVSRYKKAIARAAVSRIREHARIIVDSGSTTAALIPELGQQPGLVVMTNSLHVARALTDLEHEPVLLMTGGTWDPHSESFQGQVAEQVLRSYDFDQLFIGADGIDLIRGTTTFNELLGLSRVMAEVAREVVVMVEADKVGRKIPNLELPWSSIHTLITDDRLPVEARDQIQARGINLICAAVSLEHHHHHH”, for which the “soluble on expression in E. coli” value is “not soluble”.
For the sequence “MSLTAYMDHKNLANEVIDDARAREITDGVHRVLDRIAAAEEQAGREAGSVRLLAATKTRDIGEIMAAIDAGVRMIGENRPQEVTAKAEGLARRCAERGFSLGVAGAAPDAAAEHIPFHLIGQLQSNKIGKVLPVVDTIESVDSIDLAEKISRRAVARGITVGVLLEVNESGEESKSGCDPAHAIRIAQKIGTLDGIELQGLMTIGAHVHDETVIRRGFSHLRKTRDLILASGEPGTDRCRELSMGMTGDMELAIAEGSTIVRVGTAIFGERAFIEGHHHHHH”, the “soluble on expression in E. coli” value is listed as “soluble”.
For “MKQPGEELQETLTELDDRAVVDYLIKNPEFFIRNARAVEAIRVPHPVRGTVSLVEWHMARARNHIHVLEENMALLMEQAIANEGLFYRLLYLQRSLTAASSLDDMLMRFHRWARDLGLAGASLRLFPDRWRLGAPSNHTHLALSRQSFEPLRIQRLGQEQHYLGPLNGPELLVVLPEAKAVGSVAMSMLGSDADLGVVLFTSRDASHYQQGQGTQLLHEIALMLPELLERWIERV” the value was “not soluble”; for “MKKILDACCGSRMFWFDKQNDQVLFMDNRKHYEKLESGHIVAVNPNIVADFRKMPFDDNSFYHVVFDPPHLLRAGSNSWLAKKYGKLNEQTWKEDIQKGFSECMRVLKPNGTLVFKWNEDQIKLSEILSIIDYEPLYGNKRAKTHWLVFMKESEENESNGLEHHHHHH”, “not soluble”.
